Laboratory results taken from patent US20170313754A1 (PROTAGONIST THERAPEUTICS, published 2017).
Where two headings read alike, the source gives them in different places. Numbered stars: 1 amine (or outer) side, 2 acyl side, 3 side chain; on linkers, the order of the positions; unused ones are H or OH. Square brackets hold non-standard residues; d marks the D form. Primed or numbered codes have the meaning given here. Ends that are not written are not given here. * marks the point of attachment. Ida = iminodiacetic acid, O=C(CN(CC(=O)[*:3])[*:1])[*:2]; PEG3′ = NH2CH2CH2(OCH2CH2)3CH2CH2CO2H (PEG3 linker); Dip = N[C@H](C(=O)O)C(c1ccccc1)c1ccccc1; Palmitoyl = CCCCCCCCCCCCCCCC(=O)*; β3hF = N[C@H](CC(=O)O)Cc1ccccc1; pGlu = O=C1CC[C@@H](C(=O)O)N1; β3hP = O=C(O)C[C@@H]1CCCN1; Isovaleryl = CC(C)CC(=O)*; Palm = palmitoyl

How the values were obtained:
Experiment in all cases: cell-based or functional assay
[1] = biological target: T1, human ferroportin (SLC40A1) fused in frame with GFP, stably expressed on HEK293 cells (human, UniProt Q9NP59 1-571)
T1 sequence (looked up): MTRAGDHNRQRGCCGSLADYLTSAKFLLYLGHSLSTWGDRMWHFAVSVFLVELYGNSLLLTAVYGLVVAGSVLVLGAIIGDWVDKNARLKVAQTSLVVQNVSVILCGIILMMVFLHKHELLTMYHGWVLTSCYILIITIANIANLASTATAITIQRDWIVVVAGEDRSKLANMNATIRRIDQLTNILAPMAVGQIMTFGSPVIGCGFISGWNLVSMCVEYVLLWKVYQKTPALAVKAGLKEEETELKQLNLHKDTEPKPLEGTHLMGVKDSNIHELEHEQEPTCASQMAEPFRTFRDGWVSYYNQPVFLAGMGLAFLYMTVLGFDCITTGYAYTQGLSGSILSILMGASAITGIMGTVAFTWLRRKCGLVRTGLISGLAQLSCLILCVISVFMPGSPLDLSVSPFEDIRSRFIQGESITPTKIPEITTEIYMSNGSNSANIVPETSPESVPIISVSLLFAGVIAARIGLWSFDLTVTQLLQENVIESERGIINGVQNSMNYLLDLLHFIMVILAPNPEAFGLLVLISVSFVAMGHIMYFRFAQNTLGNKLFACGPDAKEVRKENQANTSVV

[2] = biological target: T1, human ferroportin (SLC40A1) fused in …; remark: listed apart in the source
[3] = biological target: T1, human ferroportin (SLC40A1) fused in …; remark: listed apart in the source
[4] = biological target: T1, human ferroportin (SLC40A1) fused in …; remark: listed apart in the source
[5] = biological target: T1, human ferroportin (SLC40A1) fused in …; remark: listed apart in the source
[6] = biological target: T2, human ferroportin (SLC40A1) fused in frame with GFP, stably expressed on HEK293 cells (human, UniProt Q9NP59 1-571); remark: listed apart in the source
T2 sequence (looked up): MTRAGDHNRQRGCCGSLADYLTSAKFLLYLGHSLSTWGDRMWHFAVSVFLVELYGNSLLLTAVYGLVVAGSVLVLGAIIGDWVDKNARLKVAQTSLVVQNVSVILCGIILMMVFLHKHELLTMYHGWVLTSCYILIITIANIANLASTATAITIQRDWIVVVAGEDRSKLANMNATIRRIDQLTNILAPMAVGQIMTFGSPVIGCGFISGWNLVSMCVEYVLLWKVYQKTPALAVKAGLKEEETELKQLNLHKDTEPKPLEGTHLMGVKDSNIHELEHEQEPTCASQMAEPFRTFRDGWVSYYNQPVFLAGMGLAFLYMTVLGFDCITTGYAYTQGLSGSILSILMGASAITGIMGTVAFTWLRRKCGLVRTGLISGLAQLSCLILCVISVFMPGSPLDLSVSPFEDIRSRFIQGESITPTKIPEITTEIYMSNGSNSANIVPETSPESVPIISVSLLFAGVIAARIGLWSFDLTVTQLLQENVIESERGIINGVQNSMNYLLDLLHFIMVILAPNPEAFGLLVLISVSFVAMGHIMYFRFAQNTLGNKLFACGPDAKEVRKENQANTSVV

[7] = biological target: T1, human ferroportin (SLC40A1) fused in …; remark: listed apart in the source

B1: Mini-Hepcidin 1-9, Hy-DTHFPICIF-NH2 (peptide)
peptide: H-DTHFPICIF-NH2
For B1, which “Potency EC50 (nM), ferroportin degradation” value [1] is on record?
The value was 712 nM.

B2: (isovaleric acid-DTHFPICIFK(Palm)-NH2)2 (peptide)
peptide: DTHFPICIFK
modifications: N-terminal isovaleric acid; Palm on the side chain of Lys 10; C-terminal amide
With B2 as the binder, how does the “Potency EC50 (nM), ferroportin internalization/degradation assay” value [2] read?
Its value is 580 nM.

B3: (Isovaleric acid-DTHFPCIRF)2[Lys]-K(iso-Glu-Palm)-NH2 (peptide)
peptide: Isovaleryl-DTHFPCIRFK-{K(γGlu-Palm)-NH2}
modifications: also: dimer: two subunits joined at C-termini through a Lys linker
B3 was tested. Which “EC50 (nM) (n > 3), ferroportin internalization/degradation assay” value [3] did it give?
The value was 4 nM.

And the “EC50 (nM) (n > 3), ferroportin internalization/degradation assay” value [4]?
Its value is 4 nM.

B4: (Hy-DTHFPICIF-NH2)2 (peptide)
peptide: H-DTHFPICIF-NH2
modifications: also: homodimer, link between subunits not given here
Which “Potency EC50 (nM), ferroportin internalization/degradation assay” value [5] does the source give for B4 here?
The value was 146 nM.

B5: RI-Mini Hepcidin, Hy-DPhe-DIle-DCys-DIle-DPro-DPhe-DHis-DThr-DAsp-NH2 (peptide)
peptide: FICIPFHTD
modifications: all nine residues are D-amino acids (retro inverse); C-terminal amide
With B5 as the binder, how does the “Potency EC50 (nM), ferroportin degradation” value [1] read?
The value was > 10000 nM.

B6: (Ida-TH-Dpa-bhPro-RCR-bhPhe-PEG3-Palm)2 (peptide)
peptide: [Ida]TH[Dip][β3hP]RCR[β3hF]-{PEG3′-Palm}
modifications: also: homodimer, linkage not given here
How did the “Potency EC50 (nM), ferroportin internalization/degradation assay” value [5] turn out when B6 was run?
Its value is 31 nM.

B7: (isovaleric acid-DTHFPCIK(Palm)-F-NH2)2 (peptide)
peptide: Isovaleryl-DTHFPCIK(Palmitoyl)F-NH2
modifications: also: homodimer, linkage of subunits not given here
For B7, which “Potency EC50 (nM), ferroportin internalization/degradation assay” value [2] is on record?
Its value is 294 nM.

B8: (Isovaleric acid-DTHFPCIKF)2[Lys]-NH2 (peptide)
peptide: DTHFPCIKF
modifications: N-terminal isovaleric acid on each subunit; the two subunits are joined at their C-termini through a [Lys]-NH2 linker
Which “EC50 (nM) (n > 3), ferroportin internalization/degradation assay” value [3] does the source give for B8 here?
The value was 30 nM.

What about the “EC50 (nM) (n > 3), ferroportin internalization/degradation assay” value [4] of the same binder?
Its value is 30 nM.

B9: Cmpd6: Isovaleric acid-DTHFPCIIF-[Sarc]-PHSKG-[N-MeTrp]-VC-NH2 (peptide)
peptide: DTHFPCIIFXPHSKGWVC
modifications: N-terminal isovaleric acid; sarcosine [Sarc] at position 10; N-methyl-tryptophan [N-MeTrp] at position 16; C-terminal amide (-NH2)
How did the “Potency EC50 (nM), ferroportin internalization/degradation assay (loss of GFP fluorescence)” value [6] turn out when B9 was run?
Its value is 9 nM.

B10: ([pGlu]-THFPCRKF-NH2)2 (peptide)
peptide: [pGlu]THFPCRKF-NH2
modifications: also: homodimer, linkage of subunits not given here
How did the “percent at the stated concentration (printed in the Potency EC50 column), ferroportin internalization/degradation assay” value [7] turn out when B10 was run?
The value was 31 % at 10 uM.

B11: (Hy-DTHFPCLF-NH2)2 (peptide)
peptide: H-DTHFPCLF-NH2
modifications: also: homodimer, link between subunits not given here
With B11 as the binder, how does the “Potency EC50 (nM), ferroportin internalization/degradation assay” value [7] read?
Its value is 297 nM.

B12: (isovaleric acid-DTHFPCIKFAA-NH2)2 (peptide)
peptide: Isovaleryl-DTHFPCIKFAA-NH2
modifications: also: homodimer, linkage of subunits not given here
For B12, which “Potency EC50 (nM), ferroportin internalization/degradation assay” value [2] is on record?
Its value is 47 nM.
